Data from the nanobody polyreactivity screen of Harvey et al. (2022).

Assay: yeast display, Sf9 membrane polyspecificity reagent, FACS + sequencing; frameworks hold sequencing errors
Outline: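 Nanobodies came from a synthetic yeast display library in Saccharomyces cerevisiae BJ5465, induced with galactose for 36–48 hours and stained for 1 hour at 4 °C with 10% biotinylated, detergent-solubilized Sf9 membrane reagent. Cells were enriched on streptavidin microbeads and then FACS-sorted, with low and high (top ~1%) gates set on anti-HA fluorescence for expression and streptavidin fluorescence for reagent binding. Each polyreactivity label reflects the gate a clone came from. Genes were amplified by colony PCR, sequenced by MiSeq 2 × 250 and filtered by CDR length.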

Row | Sequence | polyreactivity (PSR sort gate)
1 | QVQLVESGGGLVQEGGSLRLICAASGSIFEVNAMGWYRQAPGKERELAATITYSGGSTYYADSVKGRFTISRDNAKNTVYFQMNSLKPEDTAVYYCATDYVDWELYIYDYWGQGTQVTVSS | low polyreactivity
2 | QVQLVESGGGLVQAGGSLRLSCAASGLTFNYYAMGWYRQAPGKERDLVAASTSSGSSTYYADSVKGRFTISRDNAKNTVSLQMNSLKAEDTAVYYCAVSRCSFYWLVDYWGQGTQVTVSS | high polyreactivity
3 | QVQLVESGGGLVQAGGSLLLSCAASGRIFRWNAMGWYRQAPGKERELVAAIRSRGGSTYYADSVKGRFTISRDNAKNTVYLQMNSLKPEDSAVYYCNARIASYRSIYDYWGQGTQVTVSS | high polyreactivity
4 | QVQIVESGGGLVQAAVSLPISCPASGSIFGSYAMGWYRQAPGKERELVAAISKSGGSTYYADSVKGRFTISRDYAKNTVNLQMNSLKPEDTEVYYCAARAFLYAYRAYDYWGQGTQVNVSS | high polyreactivity
5 | QVHLVESGGGLVQAGGSLRLSCAASGFIFAEYAMGWYRQEPGKERELVATINIGGSTYYADSVKGRFTISRDNAKNTVYLQMNSLKPEDTAVYYCAAEFWWGDGSQGIYDYDYWGQGSQVTVSS | low polyreactivity
6 | QVQLVETGGGLVQAGGSLRLSCAASGSIFGGYAMGWYRQAPGKERELVAGITRSGGSTYYADSVKGRFTISRDNAKNTVYLQMNSLKPEDTAVYYCAVEIQFYRSPRKVRSYDYWGQGTQVTVSS | low polyreactivity
7 | QVQLVESGGGLVQAGGSLRLSCAASGLTFHRYAMGWYRQAPGKERELVAAINYSGGRTYYADSVKGRFTISRDNAKNTVYLQMNSLKPEHTAVYYCAAPRASGYYWGQGTQVTVSS | high polyreactivity
8 | QVQLVESGGGLVQAGGSLRLSCAASGSTLYWYAMGWYRQAPGKERELVAGISIGGRTNYADSVKGRFTISRDNAKNTVYLQMNSLKPEDTAVYYCNAENTYLGSRYRPYNYWGQGTQVTVSS | low polyreactivity
9 | QVQLVESGGCLVQAGGSLRLSSAASGRTFRYYAMGSYRQAPGKERELVAAITVTVTSTFYADSVKGRFTISRDNAKNTVYLQMNSLKPEDTAVYYCAVPGATSYFPDDSWGQGTQVTVSS | low polyreactivity
10 | QVQLVESGGGLVQAGGSLRLSCAASGLIIASYAMGWYRQAPGKERELVAAINTGGSTYYADSVKGRFTISRDNAKNTVYLQMNSLKPEDTAVYYCAARYTGLSYSRYGYWGQGTQVTVSS | high polyreactivity
11 | QVQLVESGGGIVQAGGSLRLSCAASGSTFKSYAMGWYRQAPGKERELVAAITHRGSTYYADSVKGSFTISRDNAKNTVYLQMKSLKPEDTAVYYCNVRRICNGRRVDYWGQGTQVTVSS | high polyreactivity
12 | QVQLVESGGGLFQAGGSLSLSCAASGRNLSGYDMGWYRQAQGKERELVAAITRGGTTYYADSVKGRFTISRDNSKNTVYLQMNSLKADDTAVVYTVSYAQYDYWGQGTQVTVSS | low polyreactivity
13 | QVQLVESGGGLVQAGGRLRLSCAASGIISRFYAMGWYRQAPGKERELVARISGSGGSTYYADSVKGRFTISRDNAKTTVYLQMNSLKPEDTAVYYFNAKSYRYFGVRRFNYWGQGTQVTVSS | high polyreactivity
14 | QVQLVESGGGLVQAGGSLRLSCAASGFIFPTYAMGWYRQAPGKERELVATITTNAGGTHYADSVKGRFTISRDNAKNNVYIQMNSLKPEDTAVYYCNAYGPNIYSSRYDYWGQGTQVTVSS | low polyreactivity
15 | QVQLVESGGGLVQAGGSLRLSCAASGSTFVSNAMGGYRQAPGKERELVAAISSSGGRTSYADSVKGRFTISRDNAKNTVYLQMNSLKPEDTAVYYCAARFKSVDYVQYYYWGQGTQVTVSS | low polyreactivity
16 | QVQLVESGGGLVQAGGSLRLSCAASGFIFDGNAMGWYRQAPGKERELVAAISSDGGTYYADSVKGRFTISRDNAKNTVYLQMNSLKPEDTAVYYCAAEQTLLYSFGWDEYWGQGTQVTVSS | low polyreactivity
17 | QVQLVESGGGLVQAGGSLRLSCAASGSTFDPYAMGWYRQAPGKERELVAAITSGGGTKYADSVKGRFTISRDNAKNTVYLQMNSLKPEDTAVYYCAADYFDSSYQPTDSILYEYWGQGTQVTVSS | low polyreactivity
18 | QVQLVESGGGLVQAGGSLRLSCAASGSTFFGYAMGWYRQAPGKERELVAAITSGGSTNYADSVKGRFTISRDNAKNTVYLQMNRLIPDDTAVYFCARRWYRGYGYWGQGTQVTVSS | high polyreactivity
19 | QVQLVESGGGLVQAGGSLRLSCAASVFTFWWYDMGWYIQAPGKERELVAAISRGGSTYYADSVKGRFTISRDNAKNTVNLQMNSLKPEDTAVYYCAADTTYGINRREYWGQGTQVTVSS | low polyreactivity
20 | QVQLVESGGGLVQAGGSLRLSCAASGSTFYDYAMGWYRQAPGKERELVASISSGGGTYYADSVKGRFTISRDNAKNTVYLQMNSLKPEDTAVYYCADDDYSSYVYGTFDRYDYWGQGTQVTLSS | low polyreactivity
21 | QVQLVESGGGLVQAGGSLRLSCAASGRIFTRNTMGWYRQAPGKERELVAAISSGASTYYADSVKGRFTISRDTAKNTVYLQMNSLKPEDTAVYYCATRGYARYWGLGTQVTVSS | low polyreactivity
22 | QVQLVESGGGLVQAGGSLRLSCAASGITFSGNAMGWYRQAPGKARELVATISQSGGRTYYADSVNGRFTISRDNAKHTVYLQMNSLKPEDTAVYYCARRRMRYTDRGYYYWGQGTQVTVSS | high polyreactivity

Row | Sequence | polyreactivity (PSR sort gate)
23 | QVHLVESGGGLVKAGGSLRLSCAASGLIFTQYSMGWYRQAPGTERELVAGITSSGGSTNYADSVKGRFTISRDNAKNTVYLQMNSLKPEDTAVYYCATRLGVLYDYWGQGTQVTVSS | low polyreactivity
24 | QVQLVESGGGLVQAGGSLRLSCAASGRTFSYYAMGWYRKAPGKERELVASISGGGRTNYADSVKGRFTISRDNAKNTVYLQMNSLKPEDTAVYYCAARYLITRQYKRGYWGQGTQVTVSS | high polyreactivity
25 | PVQHVESGGGLVQAGGSLRLSCAASGSIFVWYAMGWYRQAPGKERELVAAITINCGSTYYADSVKGRFTISRDTAKNIVYLQMNSLKPEAKAVYYCAADYYTRDRYEFDSWGQGTQVTVSS | low polyreactivity
26 | QVQLVESAGRLVQAGGSLRLSCDASGSTFKGYPIGWYRQAPGKERELVAAISRRGGSTYYADSVKGRFTISRDNAKNTVYLQMNSLKPEDTAVYYCAKEGQLRYDYWGQGTQVTVSS | high polyreactivity
27 | QVQLVESGGGLVQAGGSLRLSCAASGSILGPYAMGWYRQAPGKERELVAANSQSGARTYYADSVKGRFTISRDNAKNTVYLQMNSLKPEDTAVYYCAAQSRKGGWSAYYYWGQGTQVTVSS | high polyreactivity
28 | QVQLVESGGCLVQAGGSLRLSCAASGFIFNKYAMGWSRQATGKERELVAAISFRGGRTYYADSVKGRFTISRDNAKNTVYFQMNSLKPEDTAVYYCAAETRDYSEGYYWGQGTQVTVSS | high polyreactivity
29 | QFQRVESGGGLVQAGGSLRLTCAASGIIFVYNAMGWFRQATGKERELVAAINWRGDGTYYADSVKGRFTISRDNAKNTVYLQMNSLKQEDTAVYYCNAVRFRPNSHYRPVGYDYWGQGTQVTVSS | low polyreactivity
30 | PVQLVESGGGLVQAGGSLRVSCAASGSIFYKNAMGWYRQAPGKEREMVAAITSSGGRTYYADSVKGRFTISRDNPKNTVYLQMNSLKPEDTAVFYCAAVYGYDKYDSWGLGTQVTVSS | low polyreactivity
31 | QVQLVESGGGLVQAGGSLRLSCAASGIIFDNYAMGWYRQAPGKERELVAAISPGGSTYYADSVKGRFTISRDNAKNTVYLQMNSLKPEDTAVYYCNARKYTWYSSRFIRFDYWGQGTQVTVSS | high polyreactivity
32 | QVQLVESGGGLVQAGGSLRLSCAASGIIFFSNAMGWYRQAPAQEMELVAAITGGSSTNYADSVKGRFTISRDNAKNTVYLQMNSLKPEDTAVYYCNAPTKSTPRSEPIPYYEFDYWGQGTQVTVSS | low polyreactivity
33 | QVQLVESGRGLVQAGGSLRLSCAASGGIFTDYTMGWYRQAPGKERELVAAITWTGGSTYYADSVKGRFTISRDNAKNTFYLQMNSLKPEDSAVYYCAADDYWVNLVYWGQGTQVTVSS | low polyreactivity
34 | QVQLVESGGGLVQAGGSLRLSCAASGSTFRYYAMGWYRQAPGKESELVAAITSSGTSTYYADSVKGRFTISRDNAKNTVYLQMNSLKPEDTAVYYCAAPPVYKWVSSRYDYWGQGTQVTVSS | low polyreactivity
35 | QVQLVESGGGLVQAGGSLRLSCAASGSIFRYNAMGWYRQAPGKEREFVAIISYAGVRTYYADSVKGRFTISRDNAKNTVYLQMNSLKPEDTAVYYCAADFKQKGHRTRTTYWGQGTQVTVSS | high polyreactivity
36 | QVQLVESGGGLVQAGGSLRLSCAASGLTFRYYAMGWYRQAPGKERELVAAITRRGSTYYADSVKGRFTISRDNAKNTVYLQMISLKPEDTAVYYCATVTGFHSSPLRDLDYWGQGTQVTVSS | high polyreactivity
37 | QVQLVESGGGLVQAGGSLRLSCAASGSIFDYNGMGWYRQAPGKERELVATITLSTARTYYADSVKGRFTISRDNAKNTVYLQMNSLKPEDTAVYYCATRYPKFRRRNYWGQGTQVTVSS | high polyreactivity
38 | QVQLVESGGVLVQAGGILRLSCAASGSIFYMYAMGWYRQAPGKERELVAAISRSGGRTYYADSVKGRFTISRDNAKNTVYLQMNSLKPEDTAVFYCAARDHYSTGGMKYWGQGTQVTVSS | high polyreactivity
39 | QVQLVESGGGLVQAGGSLRLSCAASGRIFKWYAMGWSRQAPGKERELVAAITSGGSTYYADSVKGRFTISRDNAKNTVYVQMNSLKPEDTAVYYCNRYGVHRRDDYWGQGTQVTVSS | high polyreactivity
40 | QVQLVESGGGLVQAGGSLRLSCAASVSIFDSYAMAWYRQAPGKERELVAAISKRGGSTYYADSVKGRFTISRDTAKNTVYLQMNCLKPEDTAVYFCAAVYSQARSKAVYSEYYYWGLGTQVTVSS | high polyreactivity
41 | QVQLVESGGGLVQAGGSLRLSCAASGIIFNYNAMGWYRQAPGKERELVASISSSGGNTYYADSVKGRFTISRDNAKNTVYLQMNSLKPEDTAVYYCAARYVGWRLKRWYEYWGQGTQVTVSS | high polyreactivity
42 | QLQLVESGGGLVQAGGRLRLSCAASARILSSYAMGSYRQAPGKERELVARISYSGGRTYYADSVKGRFTISRDNAKNTVYLQMNSLKPEDTAVYYCAAVSRVHFSYSYDYWGQGTEVTVSS | high polyreactivity
43 | QVQLHESGGGLVQAGGSLRLGCAPSGNISHAAYMGWYRQAPGKEREFVAAIAAGSNPNYADSVKGRFTISRDNAKNTVYLQMNSLKPEDTAVFYCAVASYARVQYEYWGQGTQVTVNS | low polyreactivity
